This is an account of results in paper PMC7326820, “Characterization of Purple Acid Phosphatase Family and Functional Analysis of GmPAP7a/7b Involved in Extracellular ATP Utilization in Soybean” (Frontiers in Plant Science, 2020).

Substrate in the series: Nc1ncnc2c1ncn2[C@@H]1O[C@H](COP(=O)(O)OP(=O)(O)OP(=O)(O)O)[C@@H](O)[C@H]1O
As to the kind of experiment: Pi release, Lineweaver-Burk plot. The class given is biochemical, Glycine max. The conditions noted are these: pH and temperature not stated for kinetics (substrate tests in 45 mM Na-acetate pH 5.0).

B1: GmPAP7b (Glycine max) (protein)
chain: MASSLNQRMVFPVMVVVGMFCLLVTPSIAELPRFKHPPKKQQSLNILVLGDWGRKGTYNQSLVANQMGIVGEKLDIDFVISTGDNFYEDGLKGVDDPAFYQSFIHMYTAPSLQKTWYTVLGNHDYRGDVEAQLSPILKQKDSRWLCMRSFILDGEIVEFFFVDTTPFVEEYFTDPGEHTYDWEGVLPRLAYVSKLLKDVDSALAQSKAKWKMVVGHHTINSAGHHGSTEDLKQLLVPILEANNVDAYINGHDHCLQHIIDNNNGIHFITSGGGSKAWSGDVKPWKLEELKLYYDGQGFMSMQITKSTAYIIFYDAFGKVLHTWSISKDRNVAAWI
For the protein B1, the Km is 0.066 mM.

B2: GmPAP7a (Glycine max) (protein)
chain: MASSLNQRMLFPLMFVIGMFCLMVTPSIAELPIFKHPPKKQQSLNILVLGDWGRKGTYNQSLVANQMGIVGEKLDIDFVISTGDNFYEDGLKGVDDPAFYQSFVDMYTAPSLQKTWYTVLGNHDYRGDVGAQLSPILKQKDSRWLCMRSFILDGEIVEFFFVDTTPFVEEYFTDPGEHTYDWEGVLPRLAYLSELLKDVDLALAQSKAKWKMVVGHHTINSAGHHGNTEELKQLLVPILEANDVDAYINGHDHCLQHIIDNNSGIHFITSGGGSKAWSGDVKPWKLEELKLYYDGQGFMSMQITKSKADIIFYDAFGKVLHTWSISKDRNVAAWI
Take B2: the Michaelis-Menten constant (Km) stood at 0.11 mM.
